From patent US7148014 (University of Pennsylvania, dated 2006)

Target: T1, FcγRIIIA α + γ (WT) on transfected COS-1 cells (human; mouse, UniProt P08637 17-254; P20491 19-86)
T1 construct: whole, on cells; also called FcγRIIIA-γγ; FcγRIIIA α and wild type γ
Experiment: flow cytometry, COS-1 cells cotransfected with α and γ

T1 sequence (P08637 17-254, chain 1 of 2): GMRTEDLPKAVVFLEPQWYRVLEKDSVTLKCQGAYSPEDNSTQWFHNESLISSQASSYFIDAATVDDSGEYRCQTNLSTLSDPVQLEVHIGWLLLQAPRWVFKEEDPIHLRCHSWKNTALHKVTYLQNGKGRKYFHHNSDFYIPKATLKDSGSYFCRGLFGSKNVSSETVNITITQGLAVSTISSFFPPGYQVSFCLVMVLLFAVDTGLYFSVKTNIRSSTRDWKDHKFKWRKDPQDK
T1 sequence (P20491 19-86, chain 2 of 2): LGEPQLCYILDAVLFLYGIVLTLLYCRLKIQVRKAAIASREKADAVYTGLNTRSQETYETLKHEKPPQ

B1: anti-FcγRIII mAb, 3G8 (antibody)
chain 1: QVTLKESGPGILQPSQTLSLTCSFSGFSLRTSGMGVGWIRQPSGKGLEWLAHIWWDDDKRYNPALKSRLTISKDTSSNQVFLKIASVDTADTATYYCAQINPAWFAYWGQGTLVTVS
chain 2: DIVLTQSPASLAVSLGQRATISCKASQSVDFDGDSFMNWYQQKPGQPPKLLIYTTSNLESGIPARFSASGSGTDFTLNIHPVEEEDTATYYCQQSNEDPYTFGGGTKLELK
B1 was tested, and the “fold increase of mean fluorescence intensity over IgG isotype control or mock-transfected cells” value was 15 fold.
